# Data taken from article PMC4139611, “Differential expression of Homeobox C11 protein in water buffalo Bubalus bubalis and its putative 3D structure”.
# Target: HOXC11 (His-HOXC11) (Bubalus bubalis (water buffalo), UniProt W5XU26 1-304)
# Assay: EMSA; supershift with anti-HOXC11 antibody; 10 mM Tris pH 7.9, 1 mM DTT, 0.1 mM EDTA, 50 mM KCl, 5% glycerol, 30 min at 4 °C; 5% native PAGE in 1x TBE at room temperature
# Details: protein: recombinant; tags: N-terminal His6 with thrombin site; label: 32P (alpha-32P-dCTP); 5' overhang 4 nt (GATC) at both ends
# Sequence of HOXC11 (His-HOXC11) (W5XU26 entry or part of it): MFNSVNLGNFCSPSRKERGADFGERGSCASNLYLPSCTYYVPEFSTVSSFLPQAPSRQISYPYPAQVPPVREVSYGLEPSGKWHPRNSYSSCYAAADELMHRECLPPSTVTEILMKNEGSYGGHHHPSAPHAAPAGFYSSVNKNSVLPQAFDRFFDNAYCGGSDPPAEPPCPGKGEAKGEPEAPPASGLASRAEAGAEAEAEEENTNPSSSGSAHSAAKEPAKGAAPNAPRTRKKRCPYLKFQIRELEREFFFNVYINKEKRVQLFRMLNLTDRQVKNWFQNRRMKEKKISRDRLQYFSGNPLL
binder,measurement,value
CE-LPH1 probe (LPH promoter) (dsDNA) DNA 1: GATCTTTTACAACCTCAGTTG DNA 2: GATCCAACTGAGGTTGTAAAA,binding result,binds
